Among the data in paper PMC8565845 are stoichiometry N and ω (unitless association constant for two nucleic acid-bound ligands) values, retold here.

The target of assay [1] is HBV core protein mutant Cp-Y132A (assembly-incompetent) homodimer (hepatitis B virus (HBV)) (UniProt P03147). The assay can be described thus: HAP-Alexa488 staining with photobleaching step counting.
Assay [2] shares this target. As to the kind of experiment: optical tweezers force spectroscopy.

In assay [1], “HBV core protein mutant Cp-Y132A (assembly-incompetent) homodimer (from UniProt P03147 1-149) (natural protein)” registered a stoichiometry N of 2 Cp dimers. This substance gave a ω (unitless association constant for two nucleic acid-bound ligands) in assay [2] of 500.

A word on the stoichiometry N: it is a count of units in the complex or per binding partner.
